Here are results for one molecule from patent US20240100159A1, “USE OF IL-7R-ALPHA-GAMMA AGONIST PEPTIDES IN CELL MANUFACTURING” (MEDIKINE, INC., priority 2022, published 2024).

For this experiment, the target named is T1, hu-IL-7Rα subunit (human, UniProt P16871 21-239, limits assumed).
T1 construct: also called human interleukin-7 receptor subunit α; CD127
T1 sequence (looked up): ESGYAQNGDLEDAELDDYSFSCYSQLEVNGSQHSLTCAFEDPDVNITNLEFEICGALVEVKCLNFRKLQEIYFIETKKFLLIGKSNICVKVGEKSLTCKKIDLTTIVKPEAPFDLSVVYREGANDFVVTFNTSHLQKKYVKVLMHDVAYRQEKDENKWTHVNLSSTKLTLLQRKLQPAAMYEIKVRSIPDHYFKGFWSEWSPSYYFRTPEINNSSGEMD
In words: phage ELISA competition assay.

A word on the IC50: it is the point on the concentration scale where inhibition reaches its midpoint. Lower therefore signals inhibition by little substance.

As for SLTVPWCTLDPGSMQCAWLQNR (also called IL-7Rα ligand) [SEQ ID NO 112], the IC50 was less than 10 µM.
